From article PMC11025326 (Journal of Bacteriology, 2024)

B2: 6xHisN-LapB^ΔTM (LapB^Δ1-22aa) (domain or fragment, S. Typhimurium, UniProt Q7CQG6 23-389, looked up)
chain: SAQQTKQDEANRLSRDYVAGVNFLLSNQQDKAVDLFLDMLKEDTGTVEAHLTLGNLFRSRGEVDRAIRIHQTLMESASLTYEQRLLAVQQLGRDYMAAGLYDRAEDMFNQLTDETEFRVGALQQLLQIYQLTSDWQKAIEVAERLVKLGKDKQRIEIAHFYCELALQQMGNDDMDRAMALLKKGAAADKNSARVSIMMGRVYMARGDYAKAVESLQRVIVQDKELVSETLEMLQTCYQQLGKNAEWAEFLRRAVEENTGAGAELMLADILEAREGSDAAQVYITRQLQRHPTMRVFHKLMDYHLNEAEEGRAKESLMVLRDMVGEQVRSKPRYRCQKCGFTAYTLYWHCPSCRAWSTIKPIRGLDGQ
notes: LPS assembly protein B (LapB/YciM), S. Typhimurium; transmembrane segment (residues 1-22) removed and replaced by an N-terminal polyhistidine tag; By calibrated gel filtration a homotrimer when alone, and two copies in the complex with one LpxC; also called 6xHisNLapB^Δ1-22; LapB cytosolic domain; source: E. coli BL21 (DE3), pACYC-Duet1, IPTG; in soluble lysate for the microscale co-purification; …

How the values were obtained:
[1] = molecular target: B2; experiment: SEC; conditions: both partners purified
[2] = molecular target: the molecule itself; experiment: SEC; calibrated Superdex 200 Increase 10/300 GL; co-purified LapB^ΔTM-LpxC^Δ293-305 complex, 0.5 mg/mL; 20 mM HEPES, 300 mM NaCl, 10% glycerol, 1 mM DTT, pH 7.0
[3] = molecular target: the molecule itself; experiment: SEC; calibrated Superdex 200 Increase 10/300 GL; purified LapB^ΔTM alone, 0.5 mg/mL; 20 mM HEPES, 300 mM NaCl, 10% glycerol, 1 mM DTT, pH 7.0

B1: LpxC^Δ293-305-S-Tag (enzyme)
chain: MIKQRTLKRIVQATGVGLHTGKKVTLTLRPAPANTGVIYRRTDLNPPVDFPADAKSVRDTMLCTCLVNEHDVRISTVEHLNAALAGLGIDNIVIEVNAPEIPIMDGSAAPFVYLLLDAGIDELNCAKKFVRIKETVRVEDGDKWAEFRPYNGFTLDFTIDFNHPAIDSSSQRYAMNFSADAFMRQISRARTFGFMRDIEYLQSRGLCLGGSFDCAIVVDDYRVLNEDGLRFEDEFVRHKMLDAIGDLFMCGHNIIGAFTAYKSGHALNNKLLQAVLAKQEAWEFVTFQDDAE
notes: not shown: S-tag, C-terminal, kept
For B1, the “stoichiometry N” value [1] was 0.5 LpxC per LapB chain.

In the case of B2, the “stoichiometry N” value [2] is reported as 2 and the “stoichiometry N” value [3] is reported as 3.
